Patent publication US20180334496A1 (KODIAK SCIENCES, published 2018)
Where a chain is given by its changes, count along the chain named.

B1: KCD122 (antibody, V domains shown)
VH: EVQLQQSGPELVKPGASVKISCKASGYTFTDYYKNWMRQRHGESLEWIGDINPNNGDANYNQKFKGKATLTVDKSSSTAYMELRSLTSEDSAVYFCAREGPSFAYWGHGTLVTVSA
VL: DVLMTQTPLSLPVSLGDQASISCRSSQTIVHSNGDTYLEWYLQKPGQSPNLLIYKVSNRFSGVPDRFSGSGSGTDFTLKISRVEAEDLGVYYCFQGSHVPPTFGGGTKLEIK
B2: KCD123 (antibody, V domains shown)
VH: B1 VH with Q3H, Y32F, D57G, A58T, F95Y, H108Q
VL: B1 VL
B3: KCD118 (antibody, V domains shown)
VH: B1 VH with S25F, N55S, F95Y
VL: B1 VL with V90I
B4: KCD003 (antibody, V domains shown)
VH: EVQLQQSRPELVKPGASVKIFCKASGYTFTDYYMNWMRQRHGETLEWIGDINPNNGDPSYNQKFKDKATLTVDKSSSTASMELRSLTSDDSAVYYCAREGPSFAYWGQGTLVTVSA
VL: B1 VL with D17E
B5: KCD121 (antibody, V domains shown)
VH: B1 VH with A58T, N59S, K65R, Y80F, F95Y, H108Q
VL: B1 VL with S26N, K79R
B6: KCD137 (antibody, V domains shown)
VH: EVQLVESGGDLVKPGGSLKLSCAASGFTFSGYGMSWVRQIPDKRLEWVAISSRDNSFTYYPDSVKGRFTISRDNAKNTLYLQMSSLKSEDTALYFCTRHPYLPTGGYVMDYWGQGTSVTVSS
VL: DIVMTQSHKFMSTSVGDRVSITCKASQDVGTAVAWYQQRPGQSPKLLIYWASTRHTGVPDRFTGSGSGTDFTLTVSNVQSEDLADYFCQQYTSYPLTFGAGTKLELK
B7: KCD017 (antibody, V domains shown)
VH: DVQLQESGPDLVKPSQSLSLTCTVTDYSITSGYSWHWIRQFPGNKLEWLGYIHSSGNTNYNPSLKSRFSITRDTSKNQFFLQLNSVTSEDTATYYCALHYYGSSFGWYFDVWGAGTTVTVSS
VL: B6 VL with S20Y, R39T, P40S, V75L
B8: KCD077 (antibody, V domains shown)
VH: EVQLQQSGAELVRPGALVKLSCKASGFNIKDYYMHWVKQRPEQGLEWIGWIDPENGHTIYDPRFQGKATITADTSSNTAYLQLSSLTSEDTAVYYCSRGLLGFAYWGQGTLVTVSA
VL: DIVMTQSQKFMSTSVGDRVSVTCKASQNVGTNVAWYQQKPGQSPKALIYTASYRYSGVPDRFTGSGSGTDFTLTISNVQSEDLAEYFCQQYNSYPHMYTFGGGTKLEIK
B9: KCD214 (antibody, V domains shown)
VH: EVQLQQSVAEFVRPGASVKLSCTASGFNIKNTYMHWVKQRPEQGLEWIGRIDPANGNTEYAPKFQGKATITADTSSNTAYLQLSSLTSEDTAIYYCALYDYDGYWGQGTTLTVSS
VL: EIVLTQSPALMAASPGEKVTITCRVSSSISSSSLHWYQQKSGTSPKPWIYGTSNLASGVPVRFSGSRSGTSYSLTISSMEAEDAATYYCQQWSDYPWTFGGGTKLEIK
B10: KCD044 (antibody, V domains shown)
VH: EVQLQQSGAELVKPGASVRLSCTASGFNIKHTYMHWVSQRPERGLEWIGKIDPANGNTKYDPKFQGKATITADTSSNTVYLQLSSLTSEDTAVYYCLNAMEYWGQGTSVTVSS
VL: QSVLTQSPAIMSASPGEKVTMTCSANSSVSDMYWYQQRPGSSPRLLIYDTSNLASGVPVRFSGSGSGTSYSLTISRMEAEDAATYYCQQWSTYPWTFGGGTKLEIK
B11: KCD048 (antibody, V domains shown)
VH: EVQLQQSGADLVKPGASVKLSCTASGFNIKATYMHWVRQRPEKGLEWIGRIDPANGHTIYDPQFQGKATITSDTSSNTAYLQLNSLTSEDTAVYYCAEAMDYWGQGTSVTVSS
VL: B10 VL with S2I, M21L, N26T, D31Y, R38K, A82D, T92N, W95F
B12: KCD011 (antibody, V domains shown)
VH: EVKLVESGGGLVQPGGSLKLSCAASGFTFSSNTMSWVRQTPEKRLEWVAYITNGGGSTYYPDTVKGRFTISRDNARNTLYLQMSSLKSEDTAMYYCARHDYYTMDYWGQGTSVTVSS
VL: DIQMTQSPSSLSASLGGKVTITCKASQDINKYIAWYQHKPGKGPRLLIHYTSTLQPGIPSRFSGSGSGRDYSFSISNLEPEDIATYYCLQYDNLLYTFGGGTKLEIK
B13: KCD062 (antibody, V domains shown)
VH: EVKLVESGGGLVQPGGSLKLSCAASGFTFSTYIMSWVRQTPEKRLEWVAYITSGGSSTYYPDTVKGRFTISRDNAKSTLYLQMSSLKSEDTAMYYCARHAHFYAMDYWGQGTSVTVSS
VL: B12 VL
B14: KCD064 (antibody, V domains shown)
VH: B13 VH with T31S, E46G, S56G, S77N, A100G, H101T, F102G
VL: B12 VL with K103E
B15: KCD063 (antibody, V domains shown)
VH: B13 VH with T28I, T31S, S53N, S56G, F68L, S77N, A97V, F102Y
VL: B12 VL with A34T
B16: KCD056 (antibody, V domains shown)
VH: B12 VH with L20V, S31T, N32Y, V64E, R76K, A97V, T103A
VL: B12 VL with K103T
B17: KCD057 (antibody, V domains shown)
VH: EVKLVESGGGLVQPGGSLKLSCAASGFTFSNYIMSWVRQTPEKRLEWVAYITNGGGATYYPDTVKGQFTISRDNAKNTLYLQMSSLKSEDTAIYYCARHDFYALDFWGQGTSVTVSS
VL: B12 VL with Q90K
B18: KCD058 (antibody, V domains shown)
VH: B17 VH with G10D, N31R, Q39L, Y50F, A57N, Y60H, Q67R, K76N, F101Y, F106Y
VL: B12 VL
B19: KCD019 (antibody, V domains shown)
VH: QVQLQQSGAELARPGASVKMSCKASGYTFATYTIHWVKQRPGQGLEWIGYLNLRNDYTHYNQKFRDKAALTADKSSSTAYMQLSSLTSEDSAVYNCAFRLGNDRQGWYFDVWGAGTTVTVSS
VL: DIVMTQAHRFMSTSVGDRVIISCKASQDVGTAVAWYQQTPGQSPKILIYWTSTRHTGVPDRFTGSRSGTDFTLTISNVQSEDLADYFCQQYTTYPLTFGGGTKLEIK
B20: KCD132 (antibody, V domains shown)
VH: QVQLQQSGPELVKPGASVKISCKASGYSFTDYYINWVKQRPGQGLEWIGWIFPGSGSTYYNEKFKGKATLTVDKSSSTAYMLLSSLTSEDSAVYFCARTGYYSNLYAVDYWGQGTSVTVSS
VL: DIQMTQSPASLSVSVGETVTITCRASENIYSNLAWYQQKQGKSPQLLVYVATNLADGVPSRFSGSGSGTQYSLKINSLQSEDFGNYYCQHFWGTPYTFGGGTKLEMR
B21: KCD002 (antibody, V domains shown)
VH: EVKLVESEGGLVQPGSSMKLSCTASGFTFSDYYMAWVRQVPEKGLEWVGNINYDGSSTYYLDSLKSRFIISRDSAKNILYLQMSSLKSEDTATYFCARGEDFYLYAMDYWGQGTSVTVSS
VL: DIQMTQSPASLSASVGETVTITCRASENIHSYLAWYQQKQGKSPQLIVYNTKTLAEGVPSRFSGSGSGTQFSLKINSLQPEDFGSYYCQHHYGIPPTFGGGTKLEIK
B22: KCD014 (antibody, V domains shown)
VH: B13 VH with T31S, S53N, S56G, S57N, V64I, S77N, A100G, H101T, F102G
VL: EIVLTQSPTTMAASPGEKITITCSASSSISSNYLHWYQQKPGFSPKLLIYRTSNLASGVPARFSGSGSGTSYSLTIGTMEAEDVATYYCQQGSSIPLTFGAGTKLELK
B23: KCD128 (antibody, V domains shown)
VH: QVQLQQPGAELVRPESSVKLSCKASGYTFTSYWMDWVMQRPGQGLEWIGNIYPSGSETHYNQKFKDKATLTVDKSSTTAYMQLSSLTFEDSAVYYCARSGFIGSRYLYYFDYWGQGTTLTVSS
VL: DIVMTQSHKFMSTSVGDRVTITCKASQDVSNAVAWYQLKPGQSPKLLIYSASYRYTGVPDRFTGSGSGTDFTFTISSVQAADLAVYYCQQHYITPYTFGGGTKLEIK
B24: KCD102 (antibody, V domains shown)
VH: QVQLQQPGAELVRPGTSVKLSCKASGYTFTSYWMHWVKQRPGQGLEWIGVIDPSDSYTNYNQKFKGKATLTVDTSSSTAYMQLSSLTSEDSAVYYCARNGYDGSMDYWGQGTSVTVSS
VL: EIQMTQTTSSLSASLGDRVTISCRASQDISNYLNWYQQKPDGTVKLLIYYPSRLHSGVPSRFSGSGSGTDYSLTISNLEQEDFATYFCQQGNTLPYTFGGGTKLEIK
B25: KCD103 (antibody, V domains shown)
VH: B24 VH with N59K, G66D, D73E, R98G
VL: B24 VL with E1D, Y32S, P51T, G57R, E79D, F83I, G91A
B26: KCD101 (antibody, V domains shown)
VH: B24 VH with A97G
VL: B24 VL with E1D
B27: KCD104 (antibody, V domains shown)
VH: B24 VH with N59Y, S104A
VL: B24 VL
B28: KCD220 (antibody, V domains shown)
VH: QVQLQQSGAELMEPGASVKLSCKATGYTFTGYWIEWVKQRPGHGLEWIGETLPGSDSNNYNEKFKGKATFTADTSSNTAYMQLSSLTTEDSAIYYCARDYSNYWYFDVWGTGTTVTVSS
VL: DIQMTQTTSSLSASLGDRVTISCRASQDISNYLNWYQQKPDGTVKLLIYYTSNLHSGVPSRFSGSGSGTDYSLTISNLEQEDIATYFCQQDSKHRTFGGGTKLEIK

Each binder was assayed against T1, human Complement Factor D (CFD), purified from human serum (human, UniProt P00746 26-253) (assay: SPR MX96, mAbs amine-coupled, CFD injected).
T1 construct: serum purified (CompTech A136); also called serum purified CFD; hCFD-Comptech
T1 sequence (P00746 26-253): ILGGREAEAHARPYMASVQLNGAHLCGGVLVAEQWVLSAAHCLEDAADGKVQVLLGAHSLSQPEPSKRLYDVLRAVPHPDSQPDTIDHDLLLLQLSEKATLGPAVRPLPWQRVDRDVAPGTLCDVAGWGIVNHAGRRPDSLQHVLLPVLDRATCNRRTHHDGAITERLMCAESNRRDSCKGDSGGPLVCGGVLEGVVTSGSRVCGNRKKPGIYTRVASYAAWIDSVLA

Kd | Binder
1.44 nM | B1
2.77 nM | B2
0.757 nM | B3
1.05 nM | B4
1.8 nM | B5
0.504 nM | B6
7.85 nM | B7
16.9 nM | B8
1.56 nM | B9
2.62 nM | B10
1.87 nM | B11
77.5 nM | B12
24 nM | B13
20.3 nM | B14
33.3 nM | B15
60.2 nM | B16
2.71 nM | B17
9.91 nM | B18
7.24 nM | B19
2.61 nM | B20
0.132 nM | B21
21.8 nM | B22
14 nM | B23
3.56 nM | B24
4.37 nM | B25
3.78 nM | B26
1.58 nM | B27
0.0535 nM | B28
